The target of data set [1] is T1, FENMIT (human, UniProt P39748-2 1-316). Briefly: EMSA; 1-50 nM FENMIT; 25 mM Tris pH 8.0, 1 mM DTT, 0.1 mg/ml BSA, 6% glycerol; 0.2 nM 32P substrate; 1 h on ice; 10% native PAGE in tris-borate. As to conditions: protein: recombinant; tags: His; label: 5'-32P; single strand. In general terms: In EMSA bound probe runs differently from free probe, usually more slowly.

Data set [2] concerns the target T1, FENMIT. Briefly: competition; 25 nM FENMIT; cold RNA44 0-5 nM; 25 mM Tris pH 8.0, 1 mM DTT, 0.1 mg/ml BSA, 6% glycerol; 0.2 nM 32P substrate; 1 h on ice; 10% native PAGE in tris-borate. As to conditions: protein: recombinant; tags: His; label: 5'-32P on RNA44; equilibrating full 5' RNA flap, 1 nt 3' DNA flap.
Data set [3] concerns the target T1, FENMIT. Briefly: EMSA; 1-50 nM FENMIT; equal to short 3' flap; 25 mM Tris pH 8.0, 1 mM DTT, 0.1 mg/ml BSA, 6% glycerol; 0.2 nM 32P substrate; 1 h on ice; 10% native PAGE in tris-borate. As to conditions: protein: recombinant; tags: His; label: 5'-32P on RNA44; 5' RNA flap with 20 nt 3' DNA flap.
The target of data set [4] is T1, FENMIT. Briefly: EMSA; 25 mM Tris pH 8.0, 1 mM DTT, 0.1 mg/ml BSA, 6% glycerol; 0.2 nM 32P substrate; 1 h on ice; 10% native PAGE in tris-borate. The conditions noted are these: protein: recombinant, tags: His.
The target in data set [5] is FEN1 D181A (human, UniProt P39748 1-380, D181A). The description is as above. As to conditions: protein: recombinant; tags: His; label: 5'-32P on 19DNA; equilibrating double flap: 19 nt 5' DNA flap, 1 nt 3' flap.
FEN1 D181A, sequence (P39748 whole entry D181A): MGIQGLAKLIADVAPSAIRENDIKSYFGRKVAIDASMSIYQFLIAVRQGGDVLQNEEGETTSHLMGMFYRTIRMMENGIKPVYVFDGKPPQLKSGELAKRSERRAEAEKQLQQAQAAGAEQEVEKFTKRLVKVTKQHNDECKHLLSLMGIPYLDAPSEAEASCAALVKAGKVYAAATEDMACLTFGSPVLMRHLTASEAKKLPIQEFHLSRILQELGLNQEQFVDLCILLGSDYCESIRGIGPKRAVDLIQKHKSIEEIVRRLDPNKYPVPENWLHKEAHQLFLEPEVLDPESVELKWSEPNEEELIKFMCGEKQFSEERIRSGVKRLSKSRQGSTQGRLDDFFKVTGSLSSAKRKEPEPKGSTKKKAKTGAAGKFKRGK
Data set [6] has as its target FEN1 (FEN1-1.His) (human, UniProt P39748 1-380). Described as above. As to conditions: protein: recombinant; tags: His; label: 5'-32P on 19DNA; equilibrating double flap: 19 nt 5' DNA flap, 1 nt 3' flap.

T1 sequence (P39748 65-380): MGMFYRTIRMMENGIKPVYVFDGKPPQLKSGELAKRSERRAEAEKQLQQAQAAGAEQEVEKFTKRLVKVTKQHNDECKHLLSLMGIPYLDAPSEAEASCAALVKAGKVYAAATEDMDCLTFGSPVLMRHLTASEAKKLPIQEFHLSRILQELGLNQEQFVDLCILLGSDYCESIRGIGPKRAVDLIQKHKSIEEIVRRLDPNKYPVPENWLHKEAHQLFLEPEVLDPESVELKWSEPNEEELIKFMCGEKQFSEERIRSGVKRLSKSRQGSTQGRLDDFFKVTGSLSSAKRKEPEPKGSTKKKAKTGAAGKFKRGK
FEN1 (FEN1-1.His), sequence (P39748 whole entry): as the sequence (P39748 whole entry D181A) above, with A181D counted along it

B1: RNA44 ssRNA (ssRNA)
RNA: UCAACGUGGGCAAAGAAUGUCCUACGUCCGAUACGGAUAAUCGC
On to B1, for which, in data set [1], the binding signal was 3 fold lower affinity than RNA flap substrates.

B2: T2:U2:RNA44* 5' RNA flap (mixed)
DNA 1: GCGATTATCCGTATCGGACGTAGGAAGCCTGCCATTTGATGGTC
DNA 2: GACCATCAAATGGCAGGCTG
RNA: UCAACGUGGGCAAAGAAUGUCCUACGUCCGAUACGGAUAAUCGC
As to B2, in data set [2], the binding signal was 3 fold more cold RNA44 for half competition than labeled ssRNA needs.

B3: U3:T2:RNA44* 5' RNA flap with 20 nt 3' flap (mixed)
DNA 1: GCGATTATCCGTATCGGACGTAGGAAGCCTGCCATTTGATGGTC
DNA 2: GACCATCAAATGGCAGGCTGAACGAACAAAGCGAAAGCG
RNA: UCAACGUGGGCAAAGAAUGUCCUACGUCCGAUACGGAUAAUCGC
As to B3, the binding result in data set [3] is listed as “binds”.

B4: T6:D1:RNA44* R-loop (mixed)
DNA 1: CTGCGTCGGCTTAAGATGGTGCGATTATCCGTATCGGACGTAGGACATTCTTTGCCCACGTTGATGGGTAGATAGCCTAACCGG
DNA 2: CCGGTTAGGCTATCTACCCATAAGTTTATTCCCTGCTCTTAGCAGATGGAGTCTGTGAACTGCAATCAATACCATCTTAAGCCGACGCAG
RNA: UCAACGUGGGCAAAGAAUGUCCUACGUCCGAUACGGAUAAUCGC
B4: the binding result in data set [4] (label: 5'-32P on RNA44, R-loop without RNA flap) is listed as “binds”.

B5: T1:U1:19DNA* equilibrating 5' DNA flap (structured_DNA)
DNA 1: GTCGACCTGCAGCCCAAGCTTGCGTTGCTG
DNA 2: CAGCAACGCAAGCTTGC
DNA 3: ATGTGGAAAATCTCTAGCAGGCTGCAGGTCGAC
As for B5, the binding result is reported as “no binding” in data set [4] (label: 5'-32P on 19DNA, equilibrating double flap: 19 nt 5' DNA flap, 1 nt 3' flap); “binds” in data set [5]; “binds” in data set [6].

Source of the values: article PMC3652857, “A Cryptic Targeting Signal Creates a Mitochondrial FEN1 Isoform with Tailed R-Loop Binding Properties”.
